# According to doi:10.1101/2023.05.25.542299, “A Conserved Core Region of the Scaffold NEMO is Essential for Signal-induced Conformational Change and Liquid-liquid Phase Separation” (bioRxiv, 2023):
# B1: 7XAla-NEMO (aa 1–419), bacterially expressed (natural protein)
# chain: MNRHLWKSQLAEMVQPSGGPAADQDVLGEESPLGKPAMLHLPSEQGAPETLQRALEENQELRDAIRQSNQILRERAEELLHFQASQREEKEFLMAKFQEARKLVERLGLEKLDLKRQKEQALREVEHLKRAQQQMAEDKASVKAQVTSLLGELQESQSRLEAATKEAQALEGRARAASEQARQLESEREALQQQHSVQVDQLRMQGQSVEAALRMERQAASEEKRKLAQLQVAYHQLFQEYDNHIKSSVVGSERKRGMQLEDLKQQLQQAEEALVAKQEVIDKLKEEAEQHKIVMETVPVLKAQADIYKADFQAERQAREKLAEKKELLQEQLEQLQREYSKLKASAQESARIEDMRKRHVEVSQAPLPPAPAYLSSPLALPSQRRSPPEEPPDFCCPKCQYQAPDMDTLQIHVMECIE
# Experiments:
# [1] = target: 45-mer peptide of IKKβ (as used in the CD experiments); experiment: circular dichroism (spectra and thermal denaturation with and without ligand); 10 µM NEMO protein with or without equimolar IKKβ 45-mer peptide, incubated 1 h at room temperature; 20 mM sodium phosphate, 500 mM NaCl, pH 7.4; spectra at 25 °C, melt 10 to 70 °C at 222 nm; conditions: both partners purified
# [2] = target: FITC-labeled 45-mer peptide derived from the C-terminal region of IKKβ (FITC label (position not given)); experiment: fluorescence polarisation; fluorescence anisotropy binding assay with the FITC-labeled IKKβ 45-mer peptide and NEMO proteins; conditions not told (refs 13, 23); conditions: both partners purified
binder,measurement,setting,value
B1,increase in Tm with equimolar peptide,[1],3 °C
same,Kd,[2],13 ± 2.9 nM
